25 molecules from patent US20060149033A1, “IGF antagonist peptides” (GENENTECH, INC., priority 2001, published 2006) can be followed below.

As a reminder, the IC50 is the point on the concentration scale where inhibition reaches its midpoint. A higher IC50 goes with a need for much substance.

Bridge positions count the residues as written; N and C are the ends. Peptide text beside a SMILES is read from it.

T1 sequence (P05019 49-118 limits assumed): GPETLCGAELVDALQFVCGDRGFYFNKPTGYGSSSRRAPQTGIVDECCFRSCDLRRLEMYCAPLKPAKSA

The first experiment relates to human insulin receptor (hIR). Description: Cell-based insulin KIRA assay (kinase receptor activation). The following applies: Chinese hamster ovary cells transfected with hIR; peptides incubated with 25 nm IGF-1 for 1 hr; 15 min stimulation. As for the experimental part: Cell-Based Insulin KIRA Assay of IGF-1 Binding Peptide Activity
A kinase receptor activation assay (KIRA) (Sadick et al., J. Pharm. Biomed. Anal., 19, 883-891 (1999)) for measuring phosphorylation of human insulin receptor (hIR) was developed using Chinese hamster ovary cells transfected with the hIR. (TRY-1R 5.3) Cells were grown overnight in 96-well plates with medium (PS/20) at 37° C. Supernatants were decanted and stimulation media (PS/20 and 0.5% BSA) containing either peptide samples (peptides incubated with 25 nm IGF-1 for 1 hr), experimental controls (IGF Bp1 incubated with IGF-1 for 1 hr), and 25 nm rhIGF-1 standards were added. After fifteen minute stimulation at 37° C., stimulation solutions were removed and cells were lysed with a buffer containing 50 mM HEPES, 150 mM NaCl, 0.5% Triton-X-100™ octylphenyl ethylene oxide condensate, 1 mM AEBSF, aprotinin and 0.05 mM leupeptin, and 2 mM sodium orthovanadate. Lysates were frozen at −70° C. for ELISA. Immunosorbant plates were coated with 2 μg/ml insulin receptor Ab-2 (clone 83-7) in PBS at pH 7.0 overnight at 4° C. The plate was blocked and washed as above. Cell lysates containing transfected hIR were incubated on the capture ELISA plates for 2 hrs. After removing unbound receptor by washing, biotinylated anti-phosphotyrosine 4G10 (Upstate Biologicals Inc.) was added to detect activated receptor. After 2 hrs, the plates were developed with streptavidin conjugated to HRP and TMB substrate as above.
The molecule `CSCC[C@H](NC(=O)[C@@H]1CSSC[C@H](NC(=O)[C@H](CCC(=O)O)NC(=O)[C@@H](N)CC(=O)O)C(=O)N[C@@H](CC(C)C)C(=O)N[C@@H](CCSC)C(=O)N[C@@H](CO)C(=O)N[C@@H](C(C)C)C(=O)N[C@@H](CCC(=O)O)C(=O)N[C@@H](C)C(=O)N[C@@H](CC(C)C)C(=O)N[C@@H](CCCCN)C(=O)N[C@@H](CC(N)=O)C(=O)N1)C(=O)NCC(=O)NCC(=O)O` [Peptide F1-P, DECLMSVEALKNCMGG] (H-DECLMSVEALKNCMGG-OH; disulfide 3-13) had an IC50 of 183 µM. Molecule `CC(C)[C@@H]1NC(=O)[C@@H](NC(=O)[C@H](CCCNC(=N)N)NC(=O)[C@H](C)N)CSSC[C@@H](C(=O)N[C@@H](Cc2c[nH]c3ccccc23)C(=O)N[C@@H](C)C(=O)NCC(=O)O)NC(=O)[C@H](Cc2ccc(O)cc2)NC(=O)[C@H](Cc2c[nH]c3ccccc23)NC(=O)[C@H]([C@@H](C)O)NC(=O)CNC(=O)CNC(=O)[C@H](C)NC(=O)[C@H](CC(=O)O)NC(=O)[C@H](C(C)C)NC1=O` [Peptide F2-P, ARCVVDAGGTWYCWAG] (H-ARCVVDAGGTWYCWAG-OH; disulfide 3-13) came in with an IC50 of 300 µM. Same read-out and setting: to `CC(C)C[C@@H]1NC(=O)[C@H](CC(=O)O)NC(=O)[C@H](CO)NC(=O)[C@H](C)NC(=O)[C@@H](NC(=O)CNC(=O)[C@@H](N)CC(C)C)CSSC[C@@H](C(=O)N[C@@H](Cc2c[nH]c3ccccc23)C(=O)N[C@@H](C)C(=O)NCC(=O)O)NC(=O)[C@H](Cc2ccc(O)cc2)NC(=O)[C@H](Cc2c[nH]c3ccccc23)NC(=O)[C@H](Cc2ccccc2)NC(=O)CNC(=O)[C@H](C)NC1=O` [Peptide F2-1, LGCASDLAGFWYCWAG] (H-LGCASDLAGFWYCWAG-OH; disulfide 3-13 (inferred); N-terminus and C-terminus assumed) belongs 40.4 µM; to `CC(C)C[C@@H]1NC(=O)[C@H](CC(=O)O)NC(=O)[C@H](CC(=O)O)NC(=O)[C@H](C(C)C)NC(=O)[C@@H](NC(=O)[C@H](CCCNC(=N)N)NC(=O)[C@@H](N)Cc2c[nH]c3ccccc23)CSSC[C@@H](C(=O)N[C@@H](Cc2c[nH]c3ccccc23)C(=O)N[C@@H](C)C(=O)NCC(=O)O)NC(=O)[C@H](Cc2ccc(O)cc2)NC(=O)[C@H](CCC(N)=O)NC(=O)[C@H](Cc2ccccc2)NC(=O)CNC(=O)CNC1=O` [Peptide F2-2, WRCVDDLGGFQYCWAG] (H-WRCVDDLGGFQYCWAG-OH; disulfide 3-13 (inferred); N-terminus and C-terminus assumed), 93.6 µM.

A further experiment addresses T1, IGF-1 (Homo sapiens, UniProt P05019).
T1 construct: made in house
Description: Affinity measurement by monovalent phage ELISA (phage competition IC50). The class given is binding. The conditions noted are these: positive second generation clones. As for the experimental part:
E. coli XL1-Blue harboring phagemids were grown overnight at 37° C. in 2YT, 50 μg/mL carbenicillin, 10 μg/mL tetracycline and M13-VCS helper phage (10^10 phage/mL). Phage were harvested from the culture supernatant by precipitation twice with PEG/NaCl and resuspended in phosphate-buffered saline, 0.2% BSA, 0.1% TWEEN®-20 detergent (BSA blocking buffer). Phage concentrations were determined spectrophotometrically (λ268=1.2×10^8 M^−1 cm^−1).
MAXISORP™ immunoplates (96-well) were coated with capture target protein for 2 hours at room temperature (100 μL at 5 μg/mL in 50 mM carbonate buffer, pH 9.6). The plates were then blocked for 1 h with 0.2% BSA in phosphate-buffered saline (PBS) and washed eight times with PBS, 0.05% TWEEN®-20 detergent. Phage particles were serially diluted into BSA blocking buffer and 100 μL were transferred to coated wells. After 1 h, plates were washed eight times with PBS, 0.05% TWEEN®-20 detergent, incubated with 100 μL of 1:3000 horse radish peroxidase/anti-M13 antibody conjugate in BSA blocking buffer for 30 min, and then washed eight times with PBS, 0.05% TWEEN®-20 detergent and two times with PBS. Plates were developed using a tetramethylbenzidine substrate (TMB, Kirkegaard and Perry, Gaithersburg, Md.), stopped with 1.0 M H3PO4, and read spectrophotometrically at […].
Affinity Measurement by Monovalent Phage ELISA
Phage ELISAs were carried out as described above, using plates coated with IGF-1. Peptide-displaying phage were serially diluted and binding was measured to determine a phage concentration giving <50% of the ELISA signal at saturation.
A fixed, subsaturating concentration of peptide-phage was mixed with serial dilutions of IGF-1 and incubated for 1.0 hr and then transferred to assay plates coated with IGF-1. After 30-min incubation, the plates were washed and developed as described above. The binding affinities of the peptides for IGF-1 were determined as IC50 values where the IC50 value is defined as the concentration of IGF-1 that blocked 50% of the peptide-phage binding to the immobilized IGF-1.
“F2-N (WRCVTDAGGRPYCWA; Sequence is synthesized) [Peptide F2-N]” gave an IC50 of 1.18 µM. Still for that read-out and setting: in the case of “F2-A (GGCASDLAGFRYCWE; Sequence is synthesized) [Peptide F2-A]” it was 1.33 µM; in that of “F1-E (SDCFGSVEALKMCMY; Sequence is synthesized) [Peptide F1-E]”, 0.711 µM. Same read-out and setting: in the case of “F1-B (FGCYESVAALRTCMY; Sequence is synthesized) [Peptide F1-B]” it was 0.301 µM. The same measure, in the same setting: in the case of “F2-G (ASCVADAGGGGYCWD; Sequence is synthesized) [Peptide F2-G]” it was 0.986 µM; in that of “F1-H (MDCLASVEALKWCMY; Sequence is synthesized) [Peptide F1-H]”, 0.147 µM.

For the molecule “F2-H (WRCVDDLGGFQYCWA; Sequence is synthesized) [Peptide F2-H]”, the concentration for half-maximal inhibition (IC50) was found to be 0.319 µM.

With “F2-B (VRCAYDAGGSRYCWE; Sequence is synthesized) [Peptide F2-B]”, the IC50 is 24.6 µM. The molecule “F1-G (SDCFESVEALRACMY; Sequence is synthesized) [Peptide F1-G]” yielded an IC50 of 0.968 µM. Same read-out and setting: to “F2-E (LGCASDLAGFWYCWA; Sequence is synthesized) [Peptide F2-E]” belongs 0.554 µM. The same measure, in the same setting: in the case of “F2-K (YRCATDLAGFSYCWA; Sequence is synthesized) [Peptide F2-K]” it was 1.45 µM; in that of “F2-C (VKCARDLSGFVYCWA; Sequence is synthesized) [Peptide F2-C]”, 10000 µM; in that of “F2-M (WRCAQDAGGWTYCWA; Sequence is synthesized) [Peptide F2-M]”, 1.04 µM. Same read-out and setting: in the case of “F2-F (FRCAWELGWLYVLGL; Sequence is synthesized) [Peptide F2-F]” it was 209 µM; in that of “F1-C (RNCFESVAALRRCMY; Sequence is synthesized) [Peptide F1-C]”, 0.108 µM; in that of “F1-F (FECLTSVEALRGCMY; Sequence is synthesized) [Peptide F1-F]”, 0.286 µM. “F2-L (ARCARDAGGFYYCWA; Sequence is synthesized) [Peptide F2-L]” gave an IC50 of 4.36 µM. Still for that read-out and setting: to “F1-A (HPCLESVGALKACMY; Sequence is synthesized) [Peptide F1-A]” belongs 0.401 µM. For the molecule “F2-J (LRCAEDLGGYFYCWA; Sequence is synthesized) [Peptide F2-J]”, the IC50 stood at 2.12 µM. The same measure, in the same setting: to “F2-I (VTCAADALGFLYCWE; Sequence is synthesized) [Peptide F2-I]” belongs 1.03 µM; to “F2-D (VRCAWDLGGRAYCWA; Sequence is synthesized) [Peptide F2-D]”, 249 µM.

The test system of a further experiment is human type 1 IGF-1 receptor. Description: Cell-based IGF-1 KIRA assay. The conditions noted are these: MCF-7 cells; peptides preincubated 30 min with 2 nm IGF-1; 15-minute stimulation. As for the experimental part:
Cell-Based IGF-1 KIRA Assay
A KIRA for measuring the activation of the human type 1 IGF-1 receptor was performed using human MCF-7 cells (as described above). Cells were grown overnight in 96-well plates with medium (50:50 F12/DMEM, Gibco). Supernatants were decanted, and stimulation media (50:50 F12/DMEM with 25 mM HEPES and 2.0% BSA) containing either controls (2 nM IGF-1 preincubated with IGF Bp1 or Bp3) or experimental samples (Peptides preincubated for 30 min. with 2 nm IGF-1) were added. After 15-minute stimulation the cells were lysed, and added to the polyclonal anti-IGF-R (3B7 Santa Cruz Biotech) coated overnight on immunosorbant plates. The detection ELISA was performed as above.
For the molecule `CSCC[C@H](NC(=O)[C@@H]1CSSC[C@H](NC(=O)[C@H](CCC(=O)O)NC(=O)[C@@H](N)CC(=O)O)C(=O)N[C@@H](CC(C)C)C(=O)N[C@@H](CCSC)C(=O)N[C@@H](CO)C(=O)N[C@@H](C(C)C)C(=O)N[C@@H](CCC(=O)O)C(=O)N[C@@H](C)C(=O)N[C@@H](CC(C)C)C(=O)N[C@@H](CCCCN)C(=O)N[C@@H](CC(N)=O)C(=O)N1)C(=O)NCC(=O)NCC(=O)O` [Peptide F1-P, DECLMSVEALKNCMGG] (H-DECLMSVEALKNCMGG-OH; disulfide 3-13), the IC50 turned out to be 400 µM.

For the molecule `CC(C)C[C@@H]1NC(=O)[C@H](CC(=O)O)NC(=O)[C@H](CC(=O)O)NC(=O)[C@H](C(C)C)NC(=O)[C@@H](NC(=O)[C@H](CCCNC(=N)N)NC(=O)[C@@H](N)Cc2c[nH]c3ccccc23)CSSC[C@@H](C(=O)N[C@@H](Cc2c[nH]c3ccccc23)C(=O)N[C@@H](C)C(=O)NCC(=O)O)NC(=O)[C@H](Cc2ccc(O)cc2)NC(=O)[C@H](CCC(N)=O)NC(=O)[C@H](Cc2ccccc2)NC(=O)CNC(=O)CNC1=O` [Peptide F2-2, WRCVDDLGGFQYCWAG] (H-WRCVDDLGGFQYCWAG-OH; disulfide 3-13 (inferred); N-terminus and C-terminus assumed), half-maximal inhibition (IC50) required 130 µM.
